In one assay the test system is AKT. The assay is described as follows: Western blotting of AKT activation in breast cancer cell cultures. It counts as cell-based. From the text:
TIMP-4 appears to induce PI3K/AKT signaling, a critically important cancer cell pathway (Cantley, L. C. (2002) Science, 296:1655-7; Lopez-Knowles et al. (2010) Int. J. Cancer, 126:1121-31), through binding to the tetraspanin CD63 (Jung et al. (2006) EMBO J., 25:3934-42) (FIG. 3). […] Prior to clinical use of Her-2 targeting therapy (Herceptin®), breast cancers that were positive for Her-2 were, like TNBCs, associated with fast growth rate, early recurrence and distant disease resulting in a prognosis of poor survival (Hsieh et al. (2007) Br. J. Cancer, 97:453-7).
On the technique in general: Immunoblotting shows a protein as a band on a membrane.

Assay [1] concerns triple-negative human breast cancer cell-line MDA-MB-468. The assay is described as follows: Growth of MDA-MB-468 in culture with or without 2 nM TIMP-4. It counts as cell-based. The conditions noted are these: normal media supplemented with 2 nM TIMP-4. Here is the method: (§1) MDA-MB-468 cell were compared to the CD63 negative SK-Br-3 cells using a modified Boyden chamber to assess invasion in absence (Ctrl) and presence of 2nM TIMP-4 (N=6). […] Clonogenic growth assay (Ayene et al. (2000) Int. J. Radiat. Biol., 76:1523-1531) was used to determine the survival advantage for MDA-MB-468 cells under elevtedTIMP-4 conditions after irradiation (N=3). […] This effect can be prevented by pre-treating the cells with LY294002. […] Further, cells cultured in normal medium began to detach and die as they reached contact inhibition (day 10), whereas cells in TIMP-4-supplemented media continued to survive and grow. Growth augmented by TIMP-4 could be blocked by the addition of the TIMP-4 mAb of the instant invention. Briefly, TIMP-4 mAbs were obtained by delivering a purified glutathione-S-transferase (GST) chimeric protein comprising the human full-length 224 amino acid TIMP-4 (GenBank Accession No. NM_003256.2).

Assay [2] relates to CD63 negative SK-Br-3 cells. Nature of the assay: Modified Boyden chamber invasion, SK-Br-3. The class given is cell-based, human. The conditions noted are these: 2nM TIMP-4 for 24 hours, N=6. As for the experimental part: as §1
Assay [3] relates to MDA-MB-468 cells. The assay is described as follows: MDA-MB-468 orthotopic xenograft in mammary fat pad of nude mice with TIMP-4 or placebo slow-release pellets. The class given is in vivo. As to conditions: TIMP-4 slow-release pellets implanted two weeks before cells. As for the experimental part: FIGS. 7A and B show the effect of modulating TIMP-4 levels in a pilot animal study. Slow-release pellets were used to elevate the TIMP-4 (FIG. 7A) levels in the mammary fatpad (mfp) prior to implanting human TNBC cells. Placebo pellets (FIG. 7B) were used for control conditions. Once tumors were established, twice weekly doses of the anti-TIMP-4 or iso-type control mAb were administered during a two-week period (i.e. in total four treatments). Animals were followed for an additional two weeks post-treatment.
Inguinal mammary fat pads in nude mice were implanted with slow-release pellets (Innovative Research of America, Fla.) containing TIMP-4 to elevate its levels. Two weeks later, MDA-MB-468 cells were mixed with Matrigel™ (LDEV and phenol red free, BD Biosciences) and injected at the same site as an orthotopic xenograft. […] Tumor-bearing mice from both the groups shown were then randomly divided in half and treated by i.p. injection with 1 mg IgG of TIMP-4 mAb (clone 18:4-7) or a matched isotype control IgG2bk (BioXCell, N.H.), in sterile azide-free solution, administered twice weekly for 2 weeks. […] The antibody had no effect on animals without elevated TIMP-4 (FIG. 7B).

For assay [4], the system named is MDA-MB-468 cells. The assay is described as follows: Clonogenic growth assay after irradiation. The class given is cell-based, human. As to conditions: elevated TIMP-4 conditions, N=3. As for the experimental part:
as §1

The subject of another assay is MDA-MB-468 cell. The assay is described as follows: Modified Boyden chamber invasion, MDA-MB-468. It counts as cell-based, human. The conditions noted are these: 2nM TIMP-4 for 24 hours, N=6. As for the experimental part: as §1
The next assay deals with T1, CD63 (Homo sapiens, UniProt P08962).
T1 construct: endogenous in cells; host or cells: MDA-MB-468
T1 sequence (P08962 1-238): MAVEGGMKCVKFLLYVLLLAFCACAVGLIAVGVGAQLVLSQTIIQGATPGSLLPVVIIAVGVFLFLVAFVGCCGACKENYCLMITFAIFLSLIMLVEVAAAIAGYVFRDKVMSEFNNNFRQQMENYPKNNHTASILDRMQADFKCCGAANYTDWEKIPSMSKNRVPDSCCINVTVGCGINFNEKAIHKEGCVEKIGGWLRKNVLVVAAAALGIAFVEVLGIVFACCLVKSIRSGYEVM
Nature of the assay: Immunoprecipitation and immunofluorescence staining for CD63 binding. As to conditions: MDA-MB-468, 2nM TIMP-4. An excerpt:
Human breast cancer cell-lines expressing the tetraspanin CD63 (Chirco et al. (2006) Cancer Met. Rev., 25:99-113), as determined by FACS analysis, include MDA-MB-468.

“Also recorded” adds a separate entry of the source.

With “TIMP-1: member of the mammalian TIMP family, secreted circulating protein”, the “activation of AKT (pAkt Ser473)” value in the assay on AKT is “can activate AKT”.

B1: TIMP-4: tissue inhibitor of metalloproteinase-4 protein (R&D Systems, Inc), added to media or given in slow-release pellets (protein, UniProt Q99727 30-224, looked up)
Metalloproteinase inhibitor 4: CSCAPAHPQQHICHSALVIRAKISSEKVVPASADPADTEKMLRYEIKQIKMFKGFEKVKDVQYIYTPFDSSLCGVKLEANSQKQYLLTGQVLSDGKVFIHLCNYIEPWEDLSLVQRESLNHHYHLNCGCQITTCYTVPCTISAPNECLWTDWLLERKLYGYQAQHYVCMKHVDGTCSWYRGHLPLRKEFVDIVQP
Consider B1, for which, in assay [1], the “growth rate of MDA-MB-468” value is reported as “increased growth rate; also recorded: relatively faster growth rate”. Moreover, the “invasiveness of SK-Br-3” value in assay [2] is “did not increase the invasiveness”. For the same molecule, the “tumor size and growth rate with TIMP-4 pellets versus placebo pellets” value with MDA-MB-468 cells [3] is “Differences in tumor size and growth rate”. The “survival of MDA-MB-468 cells after irradiation” value in the assay on MDA-MB-468 cells [4] is recorded as “increased survival”. For the same molecule, the “invasiveness of MDA-MB-468” value with MDA-MB-468 cell is listed as “increased the invasiveness”. For the same molecule, the “activation of AKT (pAkt Ser473)” value in the assay with AKT is given as “can activate AKT; also recorded: sufficient to activate the PI3K/AKT pathway”. For the same molecule, in the assay with CD63, the “binding to CD63” value is recorded as “functional binding partner”.

Source of the values: patent US20170008975A1, “Anti-Tissue Inhibitor of Metalloproteinase-4 (Timp-4) Antibodies and Methods of Use Thereof” (LANKENAU INSTITUTE FOR MEDICAL RESEARCH, priority 2014, published 2017).
